# B1: LNT103: fusion polypeptide [Cecropin A]-[linker (GSGSGS)]-[endolysin LNT102]; SEQ ID NO: 15 (MAS, His tag) used in the tests (protein)
# chain: MASKWKLFKKIEKVGQNIRDGIIKAGPAVAVVGQATQIAKGSGSGSMGTVLKRGDRGSAVEDLQMKLNVAGYNLSADGIFGGDTEKAVRDVQAGAGLVVDGKVGPKTLYAIAKSATVPAKWEAIPFPTANKSRSAAMPTLNAVGAMTGVDSRLLATFASIESAFDYTVKAKTSSATGWFQFLDATWDDMIKAYGSKYGIPKDPTRALRKDPRANALMGAEFIKGNAAVLRPVINREPSDTDLYLAHFLGAGGAKKFLSADQKTLGEVLFPKPAKANPSIFSNKGVPRTLAEIYKLFEDKVSKHRALEHHHHHH
# modifications: synthetic_Fusion Polypeptide LNT103 with MAS, His tag, and extra sequence
# How the values were obtained:
# Type in all cases: cell-based
# [1] = test system: Escherichia coli; experiment: CFU reduction evaluation; conditions: E. coli (ATCC 8739); 2 μM, 2 hours
# Procedure: (§1) In order to confirm the killing ability against gram negative bacterium of the fusion polypeptide LNT103 prepared in Example 3.2, CFU reduction evaluation was performed for various gram negative bacterium. In order to perform the CFU reduction evaluation, 2 μM of each of LNT101, LNT102, and LNT103 prepared in Example 3, and 1×10^6 CFU of each of Pseudomonas aeruginosa (PA01; ATCC 15692), Acinetobacter baumannii (ATCC 17978), Escherichia coli (ATCC 8739), Klebsiella pneumoniae (ATCC 13883), and Enterobacter aerogenes (CCARM 16006) were added to reaction buffer (20 mM Tris-Cl, pH7.5) so that the final volume was 200 μl, and it was left at 37° C. for 2 hours. After that, the number of the colonies of each gram negative bacterium was confirmed to compare and evaluate the antibiotic effect of each polypeptide. As a control group, the PBS treatment group (treating PBS in the same volume as the fusion polypeptide) was used.
# [2] = test system: Klebsiella pneumoniae; experiment: CFU reduction evaluation; conditions: Klebsiella pneumoniae (ATCC 2208); 2 μM, 2 hours
# Procedure: as §1
# [3] = test system: A. baumannii; experiment: MIC and MBC, broth microdilution in CAA media
# Procedure: (§2) In addition, MIC (Minimal Inhibitory Concentration) and MBC (Minimal Bactericidal Concentration) of the fusion polypeptide LNT103 were measured. […] Specifically, the LNT103 was treated at a concentration of 64 μg/ml to a 96 well microplate row A, and the LNT103 was treated at a concentration where serial dilution was performed by ½ in rows B-G. To the row H, LNT103 was not treated. After that, the corresponding bacterium strain (type or QC, CCARM and clinical separation strain; See Tables 2-4) was treated in an amount of 5×10^5 CFU/ml, total 100 μl in all wells. Then, it was cultured at 37° C. for 18 hours. MIC was determined to be the lowest concentration at which no colonies were identified by confirming the number of the colonies in each well.
# [4] = test system: P. aeruginosa; experiment: MIC and MBC, broth microdilution in CAA media
# Procedure: as §2
# [5] = test system: Acinetobacter baumannii (ATCC 19606); experiment: FIC index, combination of colistin and LNT103; conditions: LNT103 in combination with colistin (polymyxin E)
# Procedure: The synergy effect of killing ability against gram negative bacterium by combination treatment of a polymyxin-based antibiotic having a mechanism acting on the cell membrane of bacterium and the fusion polypeptide LNT103 was confirmed. Specifically, colistin (polymyxin E) of […] was treated to a 96 well microplate column 1, and it was treated at a concentration where serial dilution was performed by ½ in columns 2-11. The LNT103 of 16 μg/ml was treated to row A, and it was treated at a concentration where serial dilution was performed by ½ in rows B-G. After that, Acinetobacter baumannii (ATCC 19606) was treated in an amount of 5×10^5 CFU/ml, total 100 μl in all wells. Then, it was cultured at 37° C. for 18 hours, and the FIC (Fractional Inhibitory Concentration) index value was calculated by the following equation: FIC index=FICA+FICB=(CA/MICA)+(CB/MICB)
# (CA and CB are each concentration of substances treated in combination (polymyxin E and LNT103), and MICA and MICB are MIC of single drug,
# FIC value: synergy effect <0.5; antagonism >4; additive 0.5-4)
# [6] = A. baumannii 643(Kyungpook National University)
# [7] = A. baumannii 3680(Gyeongsang National University)
molecule,measurement,setting,value
B1,CFU Counting result,[1],0 log CFU/ml
same,CFU Counting result,[2],0 log CFU/ml
same,MBC,[3]; [6],16 mg/L
same,MIC,[3]; [6],8 mg/L
same,MBC,[3]; [7],8 mg/L
same,MIC,[3]; [7],8 mg/L
same,MBC,[3]; A. baumannii ATCC 17978,8 mg/L
same,MIC,[3]; A. baumannii ATCC 17978,8 mg/L
same,MBC,[3]; A. baumannii ATCT 19606,8 mg/L
same,MIC,[3]; A. baumannii ATCT 19606,8 mg/L
same,MBC,[3]; A. baumannii CCARM 12001,8 mg/L
same,MIC,[3]; A. baumannii CCARM 12001,8 mg/L
same,MBC,[3]; A. baumannii CCARM 12015,16 mg/L
same,MIC,[3]; A. baumannii CCARM 12015,16 mg/L
same,MBC,[3]; A. baumannii CCARM 12026,8 mg/L
same,MIC,[3]; A. baumannii CCARM 12026,8 mg/L
same,MBC,[3]; A. baumannii CCARM 12035,8 mg/L
same,MIC,[3]; A. baumannii CCARM 12035,8 mg/L
same,MBC,[3]; A. baumannii CCARM 12202,8 mg/L
same,MIC,[3]; A. baumannii CCARM 12202,8 mg/L
same,MBC,[3]; A. baumannii F4,16 mg/L
same,MIC,[3]; A. baumannii F4,16 mg/L
same,MBC,[3]; A. baumannii F15,8 mg/L
same,MIC,[3]; A. baumannii F15,8 mg/L
same,MBC,[3]; A. baumannii F65,4 mg/L
same,MIC,[3]; A. baumannii F65,4 mg/L
same,MBC,[3]; A. baumannii F66,4 mg/L
same,MIC,[3]; A. baumannii F66,4 mg/L
same,MBC,[3]; A. baumannii F67,8 mg/L
same,MIC,[3]; A. baumannii F67,8 mg/L
same,MBC,[3]; A. baumannii F68,4 mg/L
same,MIC,[3]; A. baumannii F68,4 mg/L
same,MBC,[3]; A. baumannii F69,8 mg/L
same,MIC,[3]; A. baumannii F69,8 mg/L
same,MBC,[3]; A. baumannii F70,16 mg/L
same,MIC,[3]; A. baumannii F70,16 mg/L
same,MBC,[3]; A. baumannii F71,8 mg/L
same,MIC,[3]; A. baumannii F71,8 mg/L
same,MBC,[3]; A. baumannii KACC 13090,8 mg/L
same,MIC,[3]; A. baumannii KACC 13090,8 mg/L
same,MBC,[3]; A. baumannii KACC 14233,8 mg/L
same,MIC,[3]; A. baumannii KACC 14233,8 mg/L
same,MBC,[4]; P. aeruginosa ATCC 9027,16 mg/L
same,MIC,[4]; P. aeruginosa ATCC 9027,16 mg/L
same,MBC,[4]; P. aeruginosa ATCC 10145,32 mg/L
same,MIC,[4]; P. aeruginosa ATCC 10145,16 mg/L
same,MBC,[4]; P. aeruginosa ATCC 15522,16 mg/L
same,MIC,[4]; P. aeruginosa ATCC 15522,16 mg/L
same,MBC,[4]; P. aeruginosa ATCT 13388,16 mg/L
same,MIC,[4]; P. aeruginosa ATCT 13388,8 mg/L
same,MBC,[4]; P. aeruginosa CCARM 2134,16 mg/L
same,MIC,[4]; P. aeruginosa CCARM 2134,8 mg/L
same,MBC,[4]; P. aeruginosa CCARM 2144,32 mg/L
same,MIC,[4]; P. aeruginosa CCARM 2144,32 mg/L
same,MBC,[4]; P. aeruginosa F102,8 mg/L
same,MIC,[4]; P. aeruginosa F102,8 mg/L
same,MBC,[4]; P. aeruginosa F141,8 mg/L
same,MIC,[4]; P. aeruginosa F141,8 mg/L
same,MBC,[4]; P. aeruginosa F265,16 mg/L
same,MIC,[4]; P. aeruginosa F265,16 mg/L
same,MBC,[4]; P. aeruginosa F341,8 mg/L
same,MIC,[4]; P. aeruginosa F341,8 mg/L
same,MBC,[4]; P. aeruginosa F388,8 mg/L
same,MIC,[4]; P. aeruginosa F388,8 mg/L
same,MBC,[4]; P. aeruginosa PAO1(ATCC 15692),16 mg/L
same,MIC,[4]; P. aeruginosa PAO1(ATCC 15692),8 mg/L
same,FIC index value,"[5]; 5×10^5 CFU/ml, 37° C. 18 hours",0.375
same,interaction of the two substances by FIC index,[5]; synergy effect <0.5,there was a synergy effect between the two substances

# — patent US11807881B2, “Polypeptide, fusion polypeptide, and antibiotic against gram-negative bacteria comprising same” (priority 2020, dated 2023)
